Laboratory results as given in patent US20240182561A1 (Regeneron, published 2024).

Tests used:
[1] = target: T1, mouse CACNG1 expressed on cells (mouse, UniProt O70578 1-223); test: biosensor conjugate imaging (AF647), 6.7 nM, C2C12 mouse myotubes
T1 construct: whole, on cells; Transfected in HEK293/mCACNG1; endogenous in C2C12 myotubes and wildtype mouse myofibers; Each row names the cell type under assay; also called mCACNG1; HEK293/mCACNG1
T1 sequence (looked up): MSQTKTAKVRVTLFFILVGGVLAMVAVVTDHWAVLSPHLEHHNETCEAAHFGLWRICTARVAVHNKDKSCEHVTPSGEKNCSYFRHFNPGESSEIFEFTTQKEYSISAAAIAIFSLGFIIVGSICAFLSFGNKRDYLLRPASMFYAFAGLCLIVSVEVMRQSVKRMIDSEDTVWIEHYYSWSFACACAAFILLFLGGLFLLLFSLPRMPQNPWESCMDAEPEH
Procedure: The growth media was changed to MyoTonic Differentiation Media (Cook Myosite Cat #MD-5555) and replaced every 2 days. C2C12 mouse myoblasts were maintained in DMEM with 10% FBS and 1% penicillin-streptomycin supplement and grown in a 37° C. incubator with 5% CO₂. […] After 24 hours, growth media was replaced with differentiation media (DMEM with 2% horse serum) and placed in a 37° C. incubator with 7.5% CO₂.

[2] = target: T2, human CACNG1 expressed on cells (human, UniProt Q06432 1-222); test: cell-based or functional assay
T2 sequence (Q06432 whole entry): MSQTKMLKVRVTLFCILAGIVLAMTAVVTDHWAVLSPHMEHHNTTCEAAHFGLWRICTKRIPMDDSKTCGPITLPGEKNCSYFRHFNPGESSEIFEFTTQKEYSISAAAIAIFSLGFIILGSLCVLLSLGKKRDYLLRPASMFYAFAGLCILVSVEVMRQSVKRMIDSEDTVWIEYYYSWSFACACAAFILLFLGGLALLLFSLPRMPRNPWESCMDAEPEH

[3] = target: T2, human CACNG1 expressed on cells; test: cell-based or functional assay; remark: listed apart in the source
[4] = target: T2, human CACNG1 expressed on cells; test: cell-based or functional assay; remark: listed apart in the source

B1: REGN14570 (antibody, human IgG1, kappa, N297Q)
heavy: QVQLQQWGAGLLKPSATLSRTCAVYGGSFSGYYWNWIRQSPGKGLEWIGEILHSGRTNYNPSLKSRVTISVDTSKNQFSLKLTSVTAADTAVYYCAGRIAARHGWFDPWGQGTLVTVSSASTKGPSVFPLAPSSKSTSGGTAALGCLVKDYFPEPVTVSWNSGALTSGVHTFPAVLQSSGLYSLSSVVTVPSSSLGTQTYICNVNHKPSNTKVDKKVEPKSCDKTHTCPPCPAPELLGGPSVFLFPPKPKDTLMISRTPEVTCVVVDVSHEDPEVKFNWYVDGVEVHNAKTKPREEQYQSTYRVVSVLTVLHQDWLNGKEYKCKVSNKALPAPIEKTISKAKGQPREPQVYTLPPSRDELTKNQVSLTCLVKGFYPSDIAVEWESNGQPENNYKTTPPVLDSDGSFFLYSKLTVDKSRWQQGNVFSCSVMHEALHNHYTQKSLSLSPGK
light: DIQMTQSPSSVSTSVGDRVTISCRASQDIRKWLAWYQQKPGKAPKLLIYATSSLQSGVPSRFSGSGSGTDFTLTISSLQPEDFATYFCQQANSFPFTFGQGTKLEIKRTVAAPSVFIFPPSDEQLKSGTASVVCLLNNFYPREAKVQWKVDNALQSGNSQESVTEQDSKDSTYSLSSTLTLSKADYEKHKVYACEVTHQGLSSPVTKSFNRGEC
modifications: conjugated to the M378-Biosensor probe (Example 15) or to budesonide linker-payload M404-M3123, DAR 4.1 (Example 14); attachment residues not stated for these lots
notes: hIgG1 N297Q; Tested only as conjugates; also called REGN14570-M378-Biosensor; REGN14570-M404-M3123
binding result [1]: binds | EC50 of androgen receptor luciferase reporter activation (RLU) by the DHT conjugate REGN14570-M3004 in hCACNG1.AR.Luc LNCaP cells, 48 hours; concentration adjusted for DAR [2]: 5.83 nM | EC50 of androgen receptor luciferase reporter activation (RLU) by the DHT conjugate REGN14570-M3004 in hCACNG1.AR.Luc LNCaP cells, 24 hours; concentration adjusted for DAR [3]: 2 nM | EC50 of androgen receptor luciferase reporter activation (RLU) by the DHT conjugate REGN14570-M3004 in hCACNG1.AR.Luc LNCaP cells, 72 hours; concentration adjusted for DAR [4]: 6.65 nM
